Source: patent publication US20250179187A1, “ANTI PD-L2 ANTIBODY” (REJUVERON SENESCENCE THERAPEUTICS AG, priority 2022, published 2025)

Key:
[1] = target: T1, recombinant hPD-1 binding to CHOK-1 cell expressing hPD-L2 (Homo sapiens, UniProt Q9BQ51); test: Blocking of recombinant hPD-1 binding to cellular hPD-L2 by flow cytometry; format: cell-based; details: compared to a panel of commercially available anti-PD-L2 antibodies
T1 construct: GFP; host or cells: CHO-K1
T1 sequence (Q9BQ51 20-273): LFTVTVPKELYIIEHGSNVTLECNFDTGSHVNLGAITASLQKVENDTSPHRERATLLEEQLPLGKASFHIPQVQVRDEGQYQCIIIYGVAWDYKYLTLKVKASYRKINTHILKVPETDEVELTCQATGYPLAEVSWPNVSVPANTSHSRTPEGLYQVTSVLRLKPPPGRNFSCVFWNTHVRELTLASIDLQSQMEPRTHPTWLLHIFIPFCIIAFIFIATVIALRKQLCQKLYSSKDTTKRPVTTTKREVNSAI
Method: CHO-K1 cells over-expressing either hPDL2-GFP were detached, washed in phosphate buffered saline (PBS) and adjusted to a cell concentration of around 1 million cells in CB. Around 80,000 cells were then distributed into a round-bottom 96 well plate and the plate was centrifuged for 3 minutes at 400 g at 4° C. and supernatant discarded. A constant concentration of ligand recombinant hPD-1 ligand (Sino Biological 10377-H08H/lot LC13JA2207) of 15 micrograms/mL was incubated with respective concentration of antibody, added to the cells and incubated for 30 min at 6-8° C. Cells were washed 3 times in PBS and then incubated with a rabbit polyclonal anti-His (Abcam Ab1187/lot GR3369369-1) in CB and subsequently washed three times in PBS. Cells were then incubated with a labeled anti-rabbit secondary (AlexaFluor 647 Goat anti-Rabbit IgG (H+L) (Invitrogen A21244/lot 1910774) for 15 minutes at 4° C., washed two times in PBS, resuspended in CB and analyzed in the Sony ID7000 Spectral Cell analyzer (Sony).

recombinant mPD-L2 = target: T2, recombinant mPD-L2 (Mus musculus, UniProt Q9WUL5); test: ELISA for mPDL2; format: binding
T2 construct: purchased Sino Biological 50804-M08H-B
T2 sequence (Q9WUL5 20-247): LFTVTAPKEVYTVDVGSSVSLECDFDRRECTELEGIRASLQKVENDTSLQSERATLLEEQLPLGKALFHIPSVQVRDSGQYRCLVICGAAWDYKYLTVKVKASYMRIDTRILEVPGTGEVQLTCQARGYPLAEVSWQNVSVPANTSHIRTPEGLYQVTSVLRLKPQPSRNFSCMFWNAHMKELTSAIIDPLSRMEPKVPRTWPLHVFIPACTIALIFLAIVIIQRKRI
Method: ELISA plates were coated with recombinant mPDL2 (Sino Biological, cat 50804-M08H-B, lot LC10SE0706) at a concentration of 2 micrograms/milliliter at 4° C. for 15 h. Coating was then washed two times with PBS and blocked with 0.5% bovine serum albumin (BSA)/PBS at 37° C. for one hour. Blocking was removed and appropriate antibody concentrations diluted in 0.5% BSA/PBS for 1 hour at 37° C. Plates were then washed five time in PBS and a goat anti-mouse-HRP (Jackon Immuno Research cat #115-035-071) diluted in 0.5% BSA/PBS was added and incubated for 30 minutes at 37° C. Plates were washed again five times with PBS and TMB substrate (Medicago cat #10-9405) was added for 30 minutes at 37° C. in the dark. Reaction was stopped with 1N HCl and read and optical densities read on a standard spectrophotometer plate reader at […].

blocking activity against recombinant hPD-1 binding to CHOK-1 cell expressing hPD-L2 [1]: superior blocking activity
cross-reactivity to recombinant mPD-L2 (recombinant mPD-L2): shows cross-reactivity
B1: VH0/VK0-mIgG1: parental murine anti-PD-L2 antibody on mIgG1 backbone; SEQ ID NO: 21/SEQ ID NO: 22 (antibody, V domains shown)
VH: QVQLQQSGAELVRPGTSVKVSCKASGYAFSNYFIEWVKQRPGQGLEWIGLNIPGSGGSNYAEKFKGKATLTADKSSSTAYMQLSSLTSEDSAVYFCARRRLPPDWYFDVWGTGTTVTVSS
VL: DVVMTQTPLSLPVSLGDQASISCRSSQSLVHSDGNTYLHWYLQKPGQSPKLLIYKVSNRFSGVPDRFSGSGSGTDFTLKISRVEAEDLGVYFCSQSTHVPWTFGGGTKLEIK
